# Positions count from the first letter of the chain named. In names and notes the source's numbering stands. Like-named read-outs stand apart in the source and are kept apart here.
# B1: Se1_KARI^LE9-his6: S. exigua KARI variant I95T (protein, UniProt D0WGK0 1-342, looked up, variant I95T)
# Ketol-acid reductoisomerase …: MSVKTKEKEMAVTILYEQDVDPKVIQGLKVGIIGYGSQGHAHALNLMDSGVDVRVGLREGSSSWKTAEEAGLKVTDMDTAAEEADVIMVLVPDETQPKVYQEHIAAHLKAGNTLAFAHGFNIHYGYIVPPEDVNVIMCAPKGPGHIVRRQFTEGSGVPDLACVQQDATGNAWDIVLSYCWGVGGARSGIIKATFAEETEEDLFGEQAVLCGGLVELVKAGFETLTEAGYPPELAYFECYHEMKMIVDLMYESGIHFMNYSISNTAEYGEYYAGPKVINEQSREAMKEILKRIQDGSFAQEFVDDCNNGHKRLLEQREAINTHPIETTGAQIRSMFSWIKKED
# modifications: His6 tag
# notes: S. exigua KARI variant I95T
# B2: S631: Slackia KARI variant with residue S63 mutated (printed S631, probably S63I) (protein, UniProt D0WGK0 1-342, looked up, variant S63I)
# Ketol-acid reductoisomerase …: B1 Ketol-acid reductoisomerase … with S63I, T95I
# B3: Se1_KARI^13G6: S. exigua KARI variant G60V, I95A (protein, UniProt D0WGK0 1-342, looked up, variant G60V I95A)
# Ketol-acid reductoisomerase …: B1 Ketol-acid reductoisomerase … with G60V, T95A
# B4: Se1_KARI^JB7-his6: S. exigua KARI variant S63Q (protein, UniProt D0WGK0 1-342, looked up, variant S63Q)
# Ketol-acid reductoisomerase …: B1 Ketol-acid reductoisomerase … with S63Q, T95I
# modifications: His6 tag
# notes: S. exigua KARI variant S63Q
# B5: Se1_KARI^1A8: S. exigua KARI variant G60V, I95V, V99L (protein, UniProt D0WGK0 1-342, looked up, variant G60V I95V V99L)
# Ketol-acid reductoisomerase …: B1 Ketol-acid reductoisomerase … with G60V, T95V, V99L
# B6: Se1_KARI^LE1-his6: S. exigua KARI variant I95V (protein, UniProt D0WGK0 1-342, looked up, variant I95V)
# Ketol-acid reductoisomerase …: B1 Ketol-acid reductoisomerase … with T95V
# modifications: His6 tag
# notes: S. exigua KARI variant I95V
# B7: S63M: Slackia KARI variant with residue S63 mutated to M (protein, UniProt D0WGK0 1-342, looked up, variant S63M)
# Ketol-acid reductoisomerase …: B1 Ketol-acid reductoisomerase … with S63M, T95I
# B8: Se1_KARI^MH9-his6: S. exigua KARI variant V99L (protein, UniProt D0WGK0 1-342, looked up, variant V99L)
# Ketol-acid reductoisomerase …: B1 Ketol-acid reductoisomerase … with T95I, V99L
# modifications: His6 tag
# notes: S. exigua KARI variant V99L
# B9: Se1_NKR^S61DS63D: S. exigua KARI double aspartic acid variant S61D, S63D (protein, UniProt D0WGK0 1-342, looked up, variant S61D S63D)
# Ketol-acid reductoisomerase …: B1 Ketol-acid reductoisomerase … with S61D, S63D, T95I
# modifications: His6 tag
# notes: S. exigua KARI double aspartic acid variant S61D, S63D
# B10: Se1_KARI^HF2-his6: S. exigua KARI variant S61C (protein, UniProt D0WGK0 1-342, looked up, variant S61C)
# Ketol-acid reductoisomerase …: B1 Ketol-acid reductoisomerase … with S61C, T95I
# modifications: His6 tag
# notes: S. exigua KARI variant S61C
# Columns and labels:
# [1] = KARI assay of purified S. exigua KARI and variants with NADH (Examples 6-9); type: biochemical; details: for U/mg NADH (specific activity): cofactor NADH; for Ratio NADH/NADPH (U/mg): specific activity ratio; for Km: read-out: Km for cofactor NADH
# Procedure: (§1) S. exigua KARI activity or activities of its variants were assayed kinetically by monitoring the decrease in NADPH or NADH concentration by measuring the change in absorbance at 340 nm. An assay buffer was prepared containing 100 mM potassium phosphate pH 7.0, 1 mM DTT, 2.5 mM (S)-2-acetolactate, and 10 mM MgCl2 (final concentrations in the 1-mL assay, accounting for dilution with enzyme and cofactor). Fifty μL purified enzyme and 930 μL of the assay buffer were placed into a 1-mL cuvette. The reaction was initiated by addition of 20 μL NADPH or NADH (200 μM final concentration) for a general activity assay. Michaelis-Menten constants of the cofactors were determined with varying concentrations of NADPH (200-12 μM final) or NADH (200-6 μM final).
# [2] = KARI assay of purified S. exigua KARI and variants with NADPH (Examples 6-9); type: biochemical; details: for U/mg NADPH (specific activity): cofactor NADPH; for Km: read-out: Km for cofactor NADPH
# Procedure: as §1
Molecule,U/mg NADH (specific activity) [1],Ratio NADH/NADPH (U/mg) [1],U/mg NADPH (specific activity) [2],kcat NADH [1],Km [1],kcat NADPH [2],other results
B1,0.32 U/mg,0.58,0.56 U/mg,–,–,–,–
B2,–,4,–,–,–,–,–
B3,0.30 U/mg,0.8,0.37 U/mg,0.74 s⁻¹,34 µM,0.90 s⁻¹,kcat/Km ratio NADH/NADPH (cofactor specificity) [1]: 0.03; Km [2]: < 1 µM
B4,0.28 U/mg,0.47,0.6 U/mg,0.69 s⁻¹,–,1.5 s⁻¹,–
B5,0.26 U/mg,0.8,0.32 U/mg,0.65 s⁻¹,–,0.79 s⁻¹,–
B6,0.3 U/mg,0.8,0.4 U/mg,0.74 s⁻¹,19 µM,1.00 s⁻¹,U/mg NADH (specific activity) ([1]; listed as Se1_KARI^LE1): 0.30 U/mg; U/mg NADPH (specific activity) ([2]; listed as Se1_KARI^LE1): 0.40 U/mg
B7,–,4,–,–,–,–,–
B8,0.21 U/mg,0.64,0.34 U/mg,–,–,–,–
B9,0.4 ± 0.05 U/mg,9.5,0.042 ± 0.005 U/mg,1 ± 0.13 s⁻¹,113 ± 4 µM,0.1 ± 0.01 s⁻¹,"NADH KM value, fold increased versus wild-type [1]: 2.5 fold; kcat in presence of NADH, fold higher than in presence of NADPH [1]: 10 fold; kcat/Km ratio NADH/NADPH (cofactor specificity) [1]: 78; kcat NADH ([1]; listed as S61D/S63D): 1 s⁻¹; kcat NADH ([1]; listed as Se1_NKR^DD-his6): 1 s⁻¹; kcat/Km ratio NADH/NADPH (cofactor specificity) ([1]; listed as Se1_NKR^DD-his6): 76; NADPH KM value, fold increased versus wild-type/parent [2]: more than 800 fold; U/mg NADPH (specific activity) ([2]; listed as Se1_NKR^DD-his6): 0.04 ± 0.005 U/mg; kcat NADPH ([2]; listed as S61D/S63D): 0.1 s⁻¹; kcat NADPH ([2]; listed as Se1_NKR^DD-his6): 0.1 s⁻¹; Km [2]: 880 ± 500 µM"
B10,0.18 U/mg,0.78,0.23 U/mg,0.45 s⁻¹,43.8 µM,0.57 s⁻¹,–

# — US20140295512A1, “Ketol-Acid Reductoisomerases With Improved Performance Properties” (CALIFORNIA INSTITUTE OF TECHNOLOGY, priority 2011, published 2014)
